Data reported in US20250195212A1, “METHOD FOR GENERATING IN-SITU VASCULAR STENT AND PHOTOCURABLE DRUG-LOADED BALLOON CATHETER FOR IMPLEMENTING THE METHOD” (HANGZHOU MATRIX MEDICAL TECHNOLOGY CO., LTD., priority 2022, published 2025).

Columns and labels:
[1] = Permeability characterization: penetration into blood vessel slices, laser confocal microscope; format: in vitro ADME; details: 1 mg/mL dripped onto inner surface of 2*2 cm blood vessel slice
Procedure: 1 mg/mL of the photosensitive material with blood vessel repair function prepared in Example 1 was dripped onto the inner surface of the blood vessel, and the residual liquid on the inner surface of the blood vessel was wiped dry after a certain period of time, and the penetration depth in the blood vessel was measured using a laser confocal microscope.
Control group: a blood vessel was cut into 2*2 cm slices, with the inner surface facing upward and kept moist with 0.9% (by mass) physiological saline. 1 mg/mL of the third product in Example 1 was dripped onto the inner surface of the blood vessel, and the residual liquid on the inner surface of the blood vessel was wiped dry after a certain period of time, and the penetration depth in the blood vessel was measured using a laser confocal microscope.

[2] = test system: porcine peripheral blood vessels; assay: Lumen gain and protein cross-linking after angioplasty with riboflavin balloon and photo-activation
Procedure: A porcine peripheral blood vessel was immersed in PBS buffer. Balloons (with a pore size of 50 μm and a surface porosity of 50%) was introduced into the blood vessel. The fluid prepared in Preparation Example 1 was infused to expand the balloons from the compressed state to the inflated state at a pressure of 6 atm. While maintaining the pressure of the balloons, a light source device activated the light-guiding element to emit 450 nm light, with a photocuring duration of 5 minutes.
A porcine peripheral blood vessel was immersed in PBS buffer. Balloons prepared in Preparation Example 6 was pushed into the blood vessel. The compressed balloons were expanded by injecting fluid at a pressure of 6 atm. Then, while maintaining the pressure of the balloons, the light-guiding element emitted light with a wavelength of 450 nm, with a photocuring duration of 5 minutes.
A porcine peripheral blood vessel was immersed in PBS buffer. Balloons prepared in Preparation Example 9 was pushed into the blood vessel. The compressed balloons were expanded by injecting fluid at a pressure of 6 atm. Then, while maintaining the pressure of the balloons, the light-guiding element emitted light with a wavelength of 450 nm, with a photocuring duration of 5 minutes.
A porcine peripheral blood vessel was immersed in PBS buffer. Balloons without riboflavin were pushed into the blood vessel. […]

| SMILES | The time when the drug is observed in the adventitia of blood vessels [1] | protein cross-linking under photo-activation / medial fiber network of treated arteries [2] |
| --- | --- | --- |
| N=C(N)NCCCC(N)C(=O)NCCCCC(NC(=O)C(N)CCCNC(=N)N)C(=O)NCCCCC(NC(=O)C(CCCCNC(=O)C(N)CCCNC(=N)N)NC(=O)C(N)CCCNC(=N)N)C(=O)NCCNC(=O)C(CCCCNC(=O)C(CCCCNc1ccc2c3c(cccc13)C(=O)N(CCOCCOCCOCCN1C(=O)c3cccc4c(NCCOCCOCCOCCN)ccc(c34)C1=O)C2=O)Nc1ccc2c3c(cccc13)C(=O)N(CCOCCOCCOCCN1C(=O)c3cccc4c(NCCOCCOCCOCCN)ccc(c34)C1=O)C2=O)NC(=O)C(CCCCNc1ccc2c3c(cccc13)C(=O)N(CCOCCOCCOCCN1C(=O)c3cccc4c(NCCOCCOCCOCCN)ccc(c34)C1=O)C2=O)Nc1ccc2c3c(cccc13)C(=O)N(CCOCCOCCOCCN1C(=O)c3cccc4c(NCCOCCOCCOCCN)ccc(c34)C1=O)C2=O (centres unmarked) [Experimental group] | 18 s | – |
| Cc1cc2nc3c(=O)[nH]c(=O)nc-3n(C[C@H](O)[C@H](O)[C@H](O)CO)c2cc1C [riboflavin] | – | denser medial fiber network |
